This note sets out measurements from US20240150489A1 (ICHNOS SCIENCES, published 2024).

Assay [1] concerns the target T1, recombinant biotinylated human CD38 Avitag, His Tag (Acrobiosystems, CD8-H82E7) (human, UniProt P28907 43-300, biotinylated (Avitag)).
T1 construct: Bought protein; also called biotinylated human CD38-avi-his protein; biotinylated recombinant human CD38 protein
Kind of assay: SPR, biotinylated CD38 captured, Fab analyte, 1:1 fit.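 Further: biacore T200 at 25 °C, single-cycle kinetics with Fab injected at 7.8–2000 nM for 3 min, dissociation followed 5 min, reference flow path subtracted.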
Procedure: (§1) Surface plasmon resonance (SPR) was used to measure the binding affinities of the Fab fragments for human and cynomolgus monkey CD38. Affinities were measured on a Biacore T200 instrument (Biacore, GE Healthcare) at 25° C. and analyzed with the Biacore T200 Evaluation Software (v3.1).
(§2) The affinities to human and cynomolgus monkey CD38 were assessed by immobilizing CD38 and using Fab fragments as analyte. Biotinylated recombinant human CD38 protein was immobilized to around 160 RU on flow-path 2 of a Series S Sensor Chip SA or to around 100 RU on flow-path 2 of a Series S BiotinCAPture Chip and recombinant cynomolgus monkey CD38-his protein was immobilized to around 50-100 RU on flow-path 2 of a Series S CM5 Sensor Chip previously coated with anti-histidin antibody. Fab fragments were injected in single cycle kinetic at different concentrations ranging from 7.8 to 2000 nM, in HBS-EP+ buffer (Biacore, GE Healthcare, catalog NO: BR100669) at a flow rate of 30 μl/min for 3 min on flow-path 1 and 2 (flow-path 1 being used as reference). Dissociation was monitored for 5 min.

Assay [2] has as its target T2, recombinant cynomolgus monkey CD38-ECD-C-his (cynomolgus monkey, UniProt Q5VAN0 45-301).
T2 construct: Extracellular region fused to 6-His; also called cyno CD38-C-His; recombinant cynomolgus monkey CD38 protein
As to the kind of experiment: SPR, His-captured cyno CD38, Fab analyte, 1:1 fit.
Procedure: as §1, §2

Assay [3] has as its target T3, recombinant human CD38-ECD-C-his (human, UniProt P28907 43-300).
T3 construct: Extracellular region fused to 6-His, made in house; also called human CD38-C-His; recombinant human CD38 protein
As to the kind of experiment: SPR, Fab captured as ligand, CD38 analyte.
Procedure: Affinities of the Fab to human and cynomolgus CD38 using the Fab as ligand were measured on a Biacore T200 instrument (Biacore, GE Healthcare) at 25° C. and analyzed with the BiacoreT200 Evaluation Software (v3.1). […] The affinities to human and cynomolgus monkey CD38 were assessed by immobilizing Fab fragments and using human or cynomolgus monkey CD38 protein as analyte. Around 50-200 RU of Fab was captured on flow-path 2 of a Series S CM5 Sensor Chip coupled with anti-human Fab antibodies. Human or cynomolgus monkey CD38 was injected in multi cycle kinetic at different concentrations ranging from 0.2 to 100 nM, in HBS-EP+ buffer (Biacore, GE Healthcare, catalog NO: BR100669) at a flow rate of 30 μl/min for 5 min on flow-path 1 and 2 (flow-path 1 being used as reference). Dissociation was monitored for 10 min. […] Experimental data were processed using the 1:1 Langmuir kinetic fitting model. Measurements included zero-concentration samples for referencing. Chi², U- and residual values were used to evaluate the quality of a fit between the experimental data and individual binding models.

Assay [4] concerns the target T1, recombinant biotinylated human CD38 …. As to the kind of experiment: SPR, biotinylated CD38 captured, Fab as analyte.

B1: Anti-CD38-UCP02-F6 Fab (Fab, V domains shown)
VH: EVQLLESGGGLVQPGGSLRLSCAASGFTFSFYDMSWVRQAPGKGLEWVSAVSLYGDETYYADSVKGRFTISRDNSKNTLYLQMNSLRAEDTAVYYCAREPVSYDYYGSYFDYWGQGTLVTVSS
VL: not shown
notes: human IgG1 Fab
Regarding B1, the dissociation constant Kd in assay [1] is 389 nM.

B2: Anti-CD38-UCP02-B7 Fab (Fab, V domains shown)
VH: EVQLVESGGGLVKPGGSLRLSCAASGFSFNEAWMTWVRQAPGKGLEWVGRIKSYSDGGYTGYAAPVKGRFTISRDDSKNTLYLQMNSLKTEDTAVYYCARSPGIPYHYFDVWGQGTLVTVSS
VL: not shown
notes: human IgG1 Fab
Take B2: in assay [1], the Kd worked out at 1710 nM.

B3: Anti-CD38-UCP02-F5 Fab (Fab, V domains shown)
VH: QVQLVQSGAEVKKPGSSVKVSCKASGGVFSYYTISWVRQAPGQGLEWMGRIIPSLGATHYAQKFQGRVTITADESTSTAYMELSSLRSEDTAVYYCARSDSFYYAYYMDLWGQGTLVTVSS
VL: not shown
notes: human IgG1 Fab
B3: the dissociation constant (Kd) in assay [2] was 55.2 nM; in assay [1], 71.1 nM.

B4: Anti-CD38-UCP01-B1 Fab (Fab, V domains shown)
VH: QVQLVQSGAEVKKPGSSVKVSCKASGGDFDQYYISWVRQAPGQGLEWMGRIIPTLGDSQYAQKFQGRVTITADESTSTAYMELSSLRSEDTAVYYCARAVIVSPYYYIYVFDVWGQGTLVTVSS
VL: not shown
notes: human IgG1 Fab
Regarding B4, the Kd in assay [2] worked out at 102 nM; in assay [1] it was 193 nM.

B5: Anti-CD38-UCP02-D1 Fab (Fab, V domains shown)
VH: QVQLVQSGAEVKKPGSSVKVSCKASGGDFDQYYISWVRQAPGQGLEWMGRIIPTLGDSQYAQKFQGRVTITADESTSTAYMELSSLRSEDTAVYYCARAVIVSPYYYIYVFDVWGQGTLVTVSS
VL: not shown
notes: human IgG1 Fab
As for B5, the Kd stood at 78 nM in assay [2] and 133 nM in assay [1].

B6: Anti-CD38-UCP03-B3 Fab (Fab, V domains shown)
VH: QVQLVQSGAEVKKPGSSVKVSCKASGGDFTLYSISWVRQAPGQGLEWMGRIIPTGANANYAQKFQGRVTITADESTSTAYMELSSLRSEDTAVYYCARSWPSLGSGWFDIWGQGTLVTVSS
VL: not shown
notes: human IgG1 Fab
As for B6, the equilibrium dissociation constant (Kd) in assay [2] worked out at 170 nM; in assay [1] it was 115 nM.

B7: Anti-CD38-UCP02-A7 Fab (Fab, V domains shown)
VH: EVQLLESGGGLVQPGGSLRLSCAASGFTFSFYDMSWVRQAPGKGLEWVSTITLHGGDTYYADSVKGRFTISRDNSKNTLYLQMNSLRAEDTAVYYCARDPSYIYSTSGYFDYWGQGTLVTVSS
VL: not shown
notes: human IgG1 Fab
As for B7, the dissociation constant Kd in assay [1] is 71.1 nM.

B8: Anti-CD38-UCP01-C2 Fab (Fab, V domains shown)
VH: QVQLVQSGAEVKKPGSSVKVSCKASGGYLGIYAISWVRQAPGQGLEWMGRIIPILGEADYAQKFQGRVTITADESTSTAYMELSSLRSEDTAVYYCARGGVWWDYWGQGTLVTVSS
VL: not shown
notes: human IgG1 Fab
With B8, the results for the equilibrium dissociation constant (Kd) in assay [2] and in assay [1] were 53.5 nM and 85.3 nM, respectively.

B9: Anti-CD38-UCP03-B6 Fab (Fab, V domains shown)
VH: QVQLVQSGAEVKKPGSSVKVSCKASGGHISNSAINWVRQAPGQGLEWMGRVIPVIDDAYYAQKFQGRVTITADESTSTAYMELSSLRSEDTAVYYCARSRGYYGSFYFDIWGQGTLVTVSS
VL: not shown
notes: human IgG1 Fab; also called anti-CD38-B6; anti-CD38-B6 Fab
As to B9, the Kd was 829 nM in assay [2] and 225 nM in assay [1].

B10: anti-CD38-B6-MP01-C2 FAB (Fab, V domains shown)
VH: QVQLVQSGAEVKKPGSSVKVSCKASGGAFSDYVISWVRQAPGQGLEWMGRVIPVIDDAYYAQKFQGRVTITADESTSTAYMELSSLRSEDTAVYYCARSRGYYGSFYFDIWGQGTLVTVSS
VL: not shown
notes: human IgG1 Fab
With B10, the Kd in assay [3] is 345 nM; in assay [4], 209 nM.

B11: Anti-CD38-UCP01-E2 Fab (Fab, V domains shown)
VH: QVQLVQSGAEVKKPGSSVKVSCKASGGSFSNYAIGWVRQAPGQGLEWMGRIIPVFGSAHYAQKFQGRVTITADESTSTAYMELSSLRSEDTAVYYCARGLGYYLYSSYYFDIWGQGTLVTVSS
VL: not shown
notes: human IgG1 Fab; also called anti-CD38-E2; anti-CD38-E2 Fab
B11: the values for the Kd in assay [2] and in assay [1] were 88.9 nM and 110 nM, respectively.

B12: Anti-CD38-UCP02-B1 Fab (Fab, V domains shown)
VH: QVQLVQSGAEVKKPGSSVKVSCKASGGQFSFYAINWVRQAPGQGLEWMGEIIPDYGVTHYAQKFQGRVTITADESTSTAYMELSSLRSEDTAVYYCARWSYTYGIRYYYKLFDPWGQGTLVTVSS
VL: not shown
notes: human IgG1 Fab
On to B12, for which the dissociation constant (Kd) in assay [1] worked out at 595 nM.

B13: Anti-CD38-UCP01-H1 Fab (Fab, V domains shown)
VH: QVQLVQSGAEVKKPGSSVKVSCKASGDFFSGYAINWVRQAPGQGLEWMGRIIPLLGDTYYAQKFQGRVTITADESTSTAYMELSSLRSEDTAVYYCARSAAGWFAYWGQGTLVTVSS
VL: not shown
notes: human IgG1 Fab
For B13, the dissociation constant Kd in assay [2] turned out to be 352 nM; in assay [1], 437 nM.

B14: Anti-CD38-UCP03-H5 Fab (Fab, V domains shown)
VH: QVQLVQSGAEVKKPGSSVKVSCKASGGLFSFYAISWVRQAPGQGLEWMGGIIPFFGEPQYAQKFQGRVTITADESTSTAYMELSSLRSEDTAVYYCARGSYRFDVWGQGTLVTVSA
VL: not shown
notes: human IgG1 Fab
For B14, the Kd worked out at 111 nM in assay [2] and 142 nM in assay [1].

B15: Anti-CD38-UCP03-C3 Fab (Fab, V domains shown)
VH: QVQLVQSGAEVKKPGSSVKVSCKASGGKFSNYAISWVRQAPGQGLEWMGRIIPQIGDAAYAQKFQGRVTITADESTSTAYMELSSLRSEDTAVYYCARASFLYYSYYFDYWGQGTLVTVSS
VL: not shown
notes: human IgG1 Fab
For B15, the results for the Kd in assay [2] and in assay [1] were 465 nM and 117 nM, respectively.

B16: Anti-CD38-UCP03-C2 Fab (Fab, V domains shown)
VH: QVQLVQSGAEVKKPGSSVKVSCKASGGTFSNYAISWVRQAPGQGLEWMGGIIPAFGDAGYAQKFQGRVTITADESTSTAYMELSSLRSEDTAVYYCARGRVLYYSYYFDYWGQGTLVTVSS
VL: not shown
notes: human IgG1 Fab
Take B16: the Kd in assay [2] was 628 nM; in assay [1] it was 1390 nM.

B17: Anti-CD38-UCP02-C3 Fab (Fab, V domains shown)
VH: QVQLVQSGAEVKKPGSSVKVSCKASGDYFNNYAINWVRQAPGQGLEWMGRIIPFLDDANYAQKFQGRVTITADESTSTAYMELSSLRSEDTAVYYCARATSPLYSYYFDYWGQGTLVTVSS
VL: not shown
notes: human IgG1 Fab
On to B17, for which the equilibrium dissociation constant (Kd) in assay [2] came to 188 nM; in assay [1] it was 305 nM.

B18: Anti-CD38-UCP02-D5 Fab (Fab, V domains shown)
VH: QVQLVQSGAEVKKPGSSVKVSCKASGGIFSVHAIHWVRQAPGQGLEWMGEIIPVIGEADYAQKFQGRVTITADESTSTAYMELSSLRSEDTAVYYCAREQYYYALGGGFDYWGQGTLVTVSS
VL: not shown
notes: human IgG1 Fab
For the molecule B18, the results for the Kd in assay [2] and in assay [1] were 33.5 nM and 192 nM, respectively.

B19: Anti-CD38-UCP01-G1 Fab (Fab, V domains shown)
VH: QVQLVQSGAEVKKPGSSVKVSCKASGGGFSKYFITWVRQAPGQGLEWMGGVIPKIGYTSYAQKFQGRVTITADESTSTAYMELSSLRSEDTAVYYCARGSDDYASYSPLDSWGQGTLVTVSS
VL: not shown
notes: human IgG1 Fab
Take B19: the Kd was 283 nM in assay [2] and 1120 nM in assay [1].

B20: Anti-CD38-UCP03-B1 Fab (Fab, V domains shown)
VH: QVQLVQSGAEVKKPGSSVKVSCKASGGGFSKYFITWVRQAPGQGLEWMGGVIPKIGYTSYAQKFQGRVTITADESTSTAYMELSSLRSEDTAVYYCARGSDDYASYSPLDSWGQGTLVTVSS
VL: not shown
notes: human IgG1 Fab
For B20, the dissociation constant (Kd) in assay [2] amounted to 462 nM; in assay [1], 882 nM.

B21: Anti-CD38-UCP03-H3 Fab (Fab, V domains shown)
VH: QVQLVQSGAEVKKPGSSVKVSCKASGGVFSQFPISWVRQAPGQGLEWMGGIIAGYGATEYAQKFQGRVTITADESTSTAYMELSSLRSEDTAVYYCARVYGGIDWGQGTLVTVSS
VL: not shown
notes: human IgG1 Fab
Take B21: the Kd is 178 nM in assay [2] and 810 nM in assay [1].

B22: Anti-CD38-UCP02-H1 Fab (Fab, V domains shown)
VH: QVQLVQSGAEVKKPGSSVKVSCKASGDKFNTYAISWVRQAPGQGLEWMGGITPRYDYAHYAQKFQGRVTITADESTSTAYMELSSLRSEDTAVYYCARSWGFRAGYLDYWGQGTLVTVSS
VL: not shown
notes: human IgG1 Fab
As for B22, the results for the dissociation constant (Kd) in assay [2] and in assay [1] were 2.7 nM and 154 nM, respectively.

B23: Anti-CD38-UCP02-E5 Fab (Fab, V domains shown)
VH: QVQLVQSGAEVKKPGSSVKVSCKASGGGFRHYFISWVRQAPGQGLEWMGGIIPAAATPYYAQKFQGRVTITADESTSTAYMELSSLRSEDTAVYYCARGYWHWFDYWGQGTLVTVSS
VL: not shown
notes: human IgG1 Fab
As for B23, the dissociation constant (Kd) in assay [1] was 0.03 nM.

B24: Anti-CD38-UCP02-F2 Fab (Fab, V domains shown)
VH: QVQLVQSGAEVKKPGSSVKVSCKASGDVFSLLAIGWVRQAPGQGLEWMGRIIPSLDATHYAQKFQGRVTITADESTSTAYMELSSLRSEDTAVYYCARGRDVLRSYYFDIWGQGTLVTVSS
VL: not shown
notes: human IgG1 Fab
In the case of B24, the Kd turned out to be 14 nM in assay [2] and 14.2 nM in assay [1].

B25: Anti-CD38-UCP03-E3 Fab (Fab, V domains shown)
VH: QVQLVQSGAEVKKPGSSVKVSCKASGGSFSIYAISWVRQAPGQGLEWMGGIIPNSGDTDYAQKFQGRVTITADESTSTAYMELSSLRSEDTAVYYCARGPYDSYGESYFDYWGQGTLVTVSS
VL: not shown
notes: human IgG1 Fab
For B25, the equilibrium dissociation constant (Kd) in assay [2] amounted to 195 nM; in assay [1], 300 nM.

B26: Anti-CD38-UCP03-A6 Fab (Fab, V domains shown)
VH: QVQLVQSGAEVKKPGSSVKVSCKASGGDFSLYAISWVRQAPGQGLEWMGGIIPLLGEPVYAQKFQGRVTITADESTSTAYMELSSLRSEDTAVYYCARGHRVYSSSPFDYWGQGTLVTVSS
VL: not shown
notes: human IgG1 Fab
Consider B26, for which the Kd in assay [2] amounted to 525 nM; in assay [1], 410 nM.

B27: Anti-CD38-UCP03-H2 Fab (Fab, V domains shown)
VH: QVQLVQSGAEVKKPGSSVKVSCKASGGEFSIYVISWVRQAPGQGLEWMGRVIPSTGDTNYAQKFQGRVTITADESTSTAYMELSSLRSEDTAVYYCARGKAYYSGWLAIWGQGTLVTVSS
VL: not shown
notes: human IgG1 Fab
Consider B27, for which the Kd in assay [2] came to 672 nM; in assay [1], 1850 nM.

B28: Anti-CD38-UCP01-F1 Fab (Fab, V domains shown)
VH: QVQLVQSGAEVKKPGSSVKVSCKASGGVFSLYTITWVRQAPGQGLEWMGSIIPLLGDPEYAQKFQGRVTITADESTSTAYMELSSLRSEDTAVYYCARYPYPYGSKYFDIWGQGTLVTVSS
VL: not shown
notes: human IgG1 Fab
Consider B28, for which the Kd in assay [2] amounted to 393 nM; in assay [1] it was 429 nM.
